Experimental data: patent US8409836B2, “Treatment of cellulosic material and enzymes useful therein” (Roal Oy, priority 2005, dated 2013)

Columns and labels:
[1] = Endoglucanase activity on carboxymethyl cellulose; type: biochemical; details: purified endoglucanase, 50° C., procedure of IUPAC 1987
Summary of the method: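 Endoglucanase activity of purified enzymes from Acremonium thermophilum ALKO4245 and Thermoascus aurantiacus ALKO4242 measured on carboxymethyl cellulose by the IUPAC 1987 standard procedure. Protein by Lowry for purified preparations; the A. thermophilum supernatant was pre-incubated 24 h at 70 °C before purification.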

[2] = Hydrolysis with endoglucanase preparations, spruce; type: biochemical; details: 48 h, 45° C., pH 5.0
Protocol: The preparations containing the endoglucanases were compared in hydrolysis studies mixed with the purified CBH/Cel7 and CBH/Cel6 enzymes on several pre-treated substrates. Culture filtrates of T. reesei, containing different cloned endoglucanase enzymes were obtained as described in Example 19. The enzymes were enriched by removing thermolabile proteins from the mixtures by a heat treatment (60° C., 2 h, pH 5) and the supernatant was used for the hydrolysis studies. In addition, pure T. reesei cellulases (purified as described by Suurnäkki et al., 2000) were used in the enzyme mixtures. The endoglucanases used in the experiment were:
Washed steam pre-treated spruce fibre (impregnation with 3% SO2 for 20 min, followed by steam pre-treatment at 215° C. for 5 min), dry matter 25.9% (SPRUCE).
The endoglucanases to be studied (dosage 840 nkat/g dry matter, based on endoglucanase activity against HEC according to IUPAC, 1987) were used either with cellobiohydrolases of T. reesei (CBHI/Cel7A, 8.1 mg/g d.m. and CBHII/Cel6A, 2.0 mg/g d.m.) or with Thermoascus aurantiacus Cel7A with genetically attached CBD of T. reesei (10.1 mg/g d.m.). Purified (Suurnäkki et al., 2000) EGI (Cel7B) and EGII (Cel5A) of T. reesei were also included in the experiments for comparison. All mixtures were supplemented with additional β-glucosidase from Novozym 188 (to make the total β-glucosidase dosage 560 nkat/g d.w., the relatively high dosage was used to compensate the differences in the background activities of the different EG preparations). Triplicate tubes were incubated in mixing at 45° C. for 48 h and reference samples with inactivated enzymes and corresponding substrates were prepared. The release of hydrolysis products was measured as reducing sugars with DNS method using glucose as standard (Table 31).

- Hydrolysis products as reducing sugars, SPRUCE ([2]; with CBHI and CBHII of T. reesei): 3.0 mg/mL
- Hydrolysis products as reducing sugars, SPRUCE ([2]; with T. aurantiacus Cel7A + Tr CBD): 1.5 mg/mL
B1: Ta EG_28: endoglucanase of Thermoascus aurantiacus ALKO4242, gene Ta cel5A, amino acid SEQ ID NO: 10 (protein)
chain: MKLGSLVLALSAARLTLSAPLADRKQETKRAKVFQWFGSNESGAEFGSQNLPGVEGKDYIWPDPNTIDTLISKGMNIFRVPFMMERLVPNSMTGSPDPNYLADLIATVNAITQKGAYAVVDPHNYGRYYNSIISSPSDFQTFWKTVASQFASNPLVIFDTNNEYHDMDQTLVLNLNQAAIDGIRSAGATSQYIFVEGNSWTGAWTWTNVNDNMKSLTDPSDKIIYEMHQYLDSDGSGTSATCVSSTIGQERITSATQWLRANGKKGIIGEFAGGANDVCETAITGMLDYMAQNTDVWTGAIWWAAGPWWGDYIFSMEPDNGIAYQQILPILTPYL
- Specific activity on CMC [1]: 4290 nkat/mg
